Target: T1, wild-type rat NTF2 (nuclear transport factor 2) (rat, UniProt P61972 1-127)
T1 construct: also called wild-type NTF2; source: E. coli BL21(DE3) CodonPlus RIL, purified (NiNTA agarose, gel filtration Superdex S-75)
Test: SPR; Biacore T100, 25°C, PBS pH 7.2; Nsp1p fragment grafted on gold; multivalent kinetic analysis: discrete distribution of kinetic states (kon,i, koff,i), interaction maps averaged over ~10 sensorgrams
Details: both partners purified

T1 sequence (P61972 whole entry): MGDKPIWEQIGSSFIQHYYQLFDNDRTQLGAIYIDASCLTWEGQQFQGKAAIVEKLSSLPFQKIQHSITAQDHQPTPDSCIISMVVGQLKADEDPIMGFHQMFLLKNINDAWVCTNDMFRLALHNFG

B1: Nsp1p-5FF (yeast Nsp1p FG fragment, residues 262-359; 1x FG, 4x FSFG) (domain or fragment)
chain: not shown
notes: Nsp1p, yeast, FG fragment residues 262-359 (1x FG, 4x FSFG), in a modified pET30a vector; Grafted to the gold SPR sensor through the added N-terminal Cys residues; The vector carries a TEV site in place of the thrombin site; no cleavage is described; source: E. coli BL21(DE3) CodonPlus RIL, purified (NiNTA agarose, Superdex S-75); not shown: Cys-Cys-Trp (after the initiator Met), N-terminal, …
Q: Does B1 bind?
A: binds
